# Data from paper PMC5794963, “Link between the causative genes of holoprosencephaly: Zic2 directly regulates Tgif1 expression”.
# Experiments:
# F-HA-Zic2 [1] = molecular target: T1, F-HA-Zic2 (UniProt Q62520 1-530); assay: competition; against N8; inhibits complex formation; Footprinting: 20 mM Tris-HCl pH 8.0, 3 mM MgCl2, 5 mM CaCl2, 100 mM NaCl, 100 mM DTT, 0.1 mM EDTA, 50 ug/ml BSA, 25 C, 30 min; EMSA conditions as in earlier work; conditions: protein: recombinant; tags: N-terminal FLAG-HA; label: none
# F-HA-Zic2 [2] = molecular target: T1, F-HA-Zic2; assay: competition; against N9; inhibits complex formation; Footprinting: 20 mM Tris-HCl pH 8.0, 3 mM MgCl2, 5 mM CaCl2, 100 mM NaCl, 100 mM DTT, 0.1 mM EDTA, 50 ug/ml BSA, 25 C, 30 min; EMSA conditions as in earlier work; conditions: protein: recombinant; tags: N-terminal FLAG-HA; label: none
# F-HA-Zic2 [3] = molecular target: T1, F-HA-Zic2; assay: EMSA; even at 3-fold excess over ZBS core; Footprinting: 20 mM Tris-HCl pH 8.0, 3 mM MgCl2, 5 mM CaCl2, 100 mM NaCl, 100 mM DTT, 0.1 mM EDTA, 50 ug/ml BSA, 25 C, 30 min; EMSA conditions as in earlier work; conditions: protein: recombinant; tags: N-terminal FLAG-HA; blunt
# GLI3-ZF-CH6 (GLI3 ZFD) = GLI3-ZF-CH6 (GLI3 ZFD) (UniProt P10071 480-632); assay: EMSA; preferred over ZBS core; Footprinting: 20 mM Tris-HCl pH 8.0, 3 mM MgCl2, 5 mM CaCl2, 100 mM NaCl, 100 mM DTT, 0.1 mM EDTA, 50 ug/ml BSA, 25 C, 30 min; EMSA conditions as in earlier work; conditions: protein: recombinant; blunt
# F-HA-Zic2 [4] = molecular target: T1, F-HA-Zic2; assay: competition; against N1; shifted bands disappear completely; Footprinting: 20 mM Tris-HCl pH 8.0, 3 mM MgCl2, 5 mM CaCl2, 100 mM NaCl, 100 mM DTT, 0.1 mM EDTA, 50 ug/ml BSA, 25 C, 30 min; EMSA conditions as in earlier work; conditions: protein: recombinant; tags: N-terminal FLAG-HA; label: none
# T1 sequence (Q62520 whole entry): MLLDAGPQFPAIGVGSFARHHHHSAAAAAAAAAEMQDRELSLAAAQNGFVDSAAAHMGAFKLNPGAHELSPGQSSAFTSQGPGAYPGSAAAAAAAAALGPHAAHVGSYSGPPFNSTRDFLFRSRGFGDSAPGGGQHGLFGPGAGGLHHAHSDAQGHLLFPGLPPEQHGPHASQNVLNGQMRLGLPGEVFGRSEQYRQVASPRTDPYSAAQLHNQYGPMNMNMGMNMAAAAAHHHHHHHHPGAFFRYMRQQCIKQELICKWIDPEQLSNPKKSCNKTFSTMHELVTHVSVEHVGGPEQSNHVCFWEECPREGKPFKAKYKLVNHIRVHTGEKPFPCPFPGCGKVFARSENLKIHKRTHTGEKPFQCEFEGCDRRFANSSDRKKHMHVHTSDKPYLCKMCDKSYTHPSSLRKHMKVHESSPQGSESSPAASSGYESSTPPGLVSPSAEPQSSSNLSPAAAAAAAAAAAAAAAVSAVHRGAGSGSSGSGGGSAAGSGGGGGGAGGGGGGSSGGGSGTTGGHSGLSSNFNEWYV
# Sequence of GLI3-ZF-CH6 (GLI3 ZFD) (P10071 480-632): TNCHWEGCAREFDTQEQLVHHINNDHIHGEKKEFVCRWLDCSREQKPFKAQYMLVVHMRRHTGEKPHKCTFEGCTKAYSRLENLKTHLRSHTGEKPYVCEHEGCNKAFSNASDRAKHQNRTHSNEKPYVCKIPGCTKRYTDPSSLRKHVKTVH
binder,measurement,setting,value
cp8 (-1688 to -1669) (dsDNA) DNA 1: GTCATCCCCTGCCGGGTCCC DNA 2: GGGACCCGGCAGGGGATGAC,binding result,F-HA-Zic2 [1],binds
cp11 (-1830 to -1811) (dsDNA) DNA 1: CCCGAGTCCCCGGCGGATGT DNA 2: ACATCCGCCGGGGACTCGGG,binding result,F-HA-Zic2 [2],binds
GBS probe (dsDNA) DNA 1: CGTCTTGGGTGGTCTCCCTC DNA 2: GAGGGAGACCACCCAAGACG,binding result,F-HA-Zic2 [3],no binding
same,binding result,GLI3-ZF-CH6 (GLI3 ZFD),binds
cp4 (-1728 to -1709) (dsDNA) DNA 1: CCCGCACCACATGAGTCCCG DNA 2: CGGGACTCATGTGGTGCGGG,binding result,F-HA-Zic2 [4],binds
